Laboratory results reported in the supplement of paper PMC6755084.

B1: minF1; the commonest letter at each place (parent)
chain: GAGACCGCAACTGAAAAGTTGTTATCAGAAATGGATGGGTTGAATTTCTGCACGTAGAAGCAAAAGGC
B2: minF1; a variant is named by its letters at N, in order (parent)
chain: GAGACCGCAACTGAAAAGTTGTTNNNNAANNNNGGNTNNATTTCTGCACGTAGAAGCAAAAGGC

Variants of: B1
Assay: fraction ligated after 30 min (ligated reads / total reads); higher = more ligase activity
Settings: with F1*subA RNA substrate (template-directed ligation), 42 °C
Experimental: (§1)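 Chip-synthesised pool of minF1 ligase ribozyme variants (single and double substitutions, single to quadruple deletions, bulge and P2 designed variants) was transcribed with T7 and reacted as a pool with excess substrate F1*subA for 30 min at 42 C in 50 mM EPPS pH 8.5, 25 mM MgCl2. Ligated and unligated RNAs were separated by PAGE, barcoded by RT and deep sequenced; fraction ligated = ligated reads / total reads, relative activity = FL / FL of wild-type minF1 (0.76); sequencing FL correlated with PAGE (R2 = 0.98). Sequences are the DNA template of the ribozyme.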

| Variant | fraction ligated |
| --- | --- |
| T23A A30G | 0.358 |
| T23A A30C | 0.126 |
| T23A A30T | 0.132 |
| T23G G33C | 0.73 |
| T23G G33A | 0.801 |
| T23G G33T | 0.556 |
| T23C C26A | 0.006 |
| T23C C26T | 0.0218 |
| T23C C26G | 0.00264 |
| T23C A29C | 0.254 |
| T23C A29T | 0.288 |
| T23C A29G | 0.277 |
| A24C A27G | 0.0468 |
| A24C A27C | 0.056 |
| A24C A27T | 0.105 |
| T23A A43C | 0.00617 |
| T23A A43T | 0.00536 |
| T23A A43G | 0.00242 |
| T23A A24C | 0.0188 |
| T23A A24T | 0.0331 |
| T23A A24G | 0.00909 |

Variants of: B2
Assay: as above
Settings: with F1*subA RNA substrate (template-directed ligation), 42 °C
Experimental: as §1

| Variant | fraction ligated |
| --- | --- |
| ATCATGGAGTT A28G G34T T37G | 0.00165 |
| ATCATGGAGTA A28G G34T | 0.00586 |
| ATCGGGATGTG | 0.0285 |
| ATCGGGATGTA | 0.00428 |
| ATGAGATGTGA A29T | 0.00278 |
| ATGAGATGTGA A29G | 0.00416 |
| ATGAGATGTGA A28T A29G | 0.016 |
| ATCGGGAGTGA A29T | 0.00273 |
| ATGATGATGTA | 0.00247 |
| ATGATGATGTG | 0.00639 |
| ATCGGGTGTGA A29T | 0.00298 |
| ATCGATGTGTG | 0.00543 |
| ATCGATGTGTA | 0.00271 |
| ATGATGGAGTG | 0.00409 |
| ATGATGGAGTA | 0.00203 |
| ATGATGGTGTA | 0.00485 |
| ATGATGGTGTG | 0.00658 |
| ATCATGTGTGA A28G | 0.00186 |
| ATCGGGATGTA A29T | 0.00281 |
| ATCGAGGAGTA G34T | 0.00121 |
| ATCATGGAGTA A28G | 0.00253 |
| ATCATGGAGTT G34T T37G A40G | 0.00188 |
| ATCGTGGTTGA | 0.00112 |
| ATCGATATTGA | 0.00165 |
| ATCATGATTGA | 0.00257 |

| Variant | fraction ligated |
| --- | --- |
| ATCGTGGTGTA | 0.00478 |
| ATCGTGGTGTG | 0.00802 |
| ATCGATGAGTT G34T T37G | 0.00178 |
| ATGAGGTGTGA | 0.00168 |
| ATCATGGAGTT A28G G34T T37G A40G | 0.00132 |
| ATCGATGGGTT G34A T37G A40G | 0.00135 |
| ATCGATGGGTA G34A | 0.00165 |
| ATCGATGGGTA G34T | 0.00207 |
| ATCATGGTGTG | 0.00925 |
| ATCATGGTGTA | 0.00395 |
| ATCAGGTGTGA A28G | 0.00256 |
| ATCATGATGTG A28G | 0.0138 |
| ATCGATGGGTG G34T | 0.00494 |
| ATCGATGGGTG G34A | 0.00444 |
| ATCATGGTTGA A28G | 0.00132 |
| ATCGATGTTGA | 0.00239 |
| ATCATATGTGA | 0.00281 |
| ATCGATGGGTT G34A T37G | 0.00243 |
| ATCGAGGTTGA | 0.00313 |
| ATCGATGGGTT G34A G35T T37G | 0.00178 |
| ATCGTGTGTGA | 0.00325 |
| ATGAGGATTGA | 0.00566 |
| ATGATGGAGTT G34T T37G A40G | 0.0011 |
| ATGATGGATGA | 0.00302 |
| ATCGAGGGTGA | 0.00167 |

| Variant | fraction ligated |
| --- | --- |
| ATCGAGGAGTT G34T T37G | 0.00239 |
| ATCATGATTGA A28G | 0.00281 |
| ATGAGGATGTA A29T | 0.00295 |
| ATCGTGGAGTT G34T T37G A40G | 0.00133 |
| ATCATGGAGTG | 0.00597 |
| ATCATGGAGTA | 0.00426 |
| ATCGATGGGTT G34T T37G | 0.00156 |
| ATCGGATGTGA A28T A29G | 0.012 |
| ATCATGGAGTG G34T | 0.0119 |
| ATCATGGAGTG A28G | 0.00442 |
| ATCGAGTGTGA | 0.00242 |
| ATCGATGATGA | 0.00308 |
| ATGATGGGTGA | 0 |
| ATCGTGGAGTG G34T | 0.0139 |
| ATCGGGATTGA A29T | 0.00409 |
| ATCGAGGAGTG G34T | 0.00393 |
| ATGATGGAGTA G34T | 0.00469 |
| ATGAGGTGTGA A29T | 0.00679 |
| ATCGTGGAGTT G34T T37G | 0.00145 |
| ATCGATGGGTT G34A G35T T37G A40G | 0.000298 |
| ATCAGGTGTGA | 0.00443 |
| ATCGAGATGTA | 0.00349 |
| ATCGAGATGTG | 0.0313 |
| ATCGTGGATGA | 0.00177 |
| ATGATATGTGA | 0.00429 |

| Variant | fraction ligated |
| --- | --- |
| ATCGAATGTGA | 0.00581 |
| ATCGATATGTA | 0.0031 |
| ATCGATATGTG | 0.00524 |
| ATGAGGAGTGA A29T | 0.0018 |
| ATGATGGTTGA | 0.00283 |
| ATCATGTGTGA | 0.00648 |
| ATCGTGGGTGA | 0.00142 |
| ATCATGGTGTG A28G | 0.0033 |
| ATCGAGGAGTT G34T T37G A40G | 0.000736 |
| ATCGGGATTGA | 0.00341 |
| ATCATGGGTGA A28G | 0.00379 |
| ATCATGGATGA | 0.00299 |
| ATCGATGGGTT G34T T37G A40G | 0.00104 |
| ATGAGGAGTGA | 0.00532 |
| ATGATGATTGA | 0.00379 |
| ATCGAGGTGTG | 0.00858 |
| ATCGAGGTGTA | 0.00324 |
| ATCGATGAGTA G34T | 0.00167 |
| ATCGATAGTGA | 0.00296 |
| ATCGTGGAGTA G34T | 0.0058 |
| ATCATGATGTA A28G | 0.00257 |
| ATCATGAGTGA | 0.00331 |
| ATGAGGATGTG | 0.00619 |
| ATGAGGATGTA | 0.00328 |
| ATCATGGAGTG A28G G34T | 0.0152 |

| Variant | fraction ligated |
| --- | --- |
| ATCGATGAGTA | 0.00221 |
| ATCGATGAGTG | 0.00474 |
| ATCATGGGTGA | 0.00433 |
| ATGATGTGTGA | 0.0027 |
| ATCGTGGAGTG | 0.00496 |
| ATCGTGGAGTA | 0.00217 |
| ATCGAGATTGA | 0.00372 |
| ATCAGGTGTGA A29T | 0.00874 |
| ATCGATGAGTT G34T T37G A40G | 0.00104 |
| ATCATGGTGTA A28G | 0.0034 |
| ATCGATGGGTA | 0.000742 |
| ATCGATGGGTG | 0.00493 |
| ATCGGGTGTGA | 0.00323 |
| ATCAGGTGTGA A28G A29T | 0.00216 |
| ATCGATGGGGT G34A G35T T37G A40T | 0.00147 |
| ATGATGAGTGA | 0.00204 |
| ATCATGAGTGA A28G | 0.00204 |
| ATCGTGATTGA | 0.00326 |
| ATCGGATGTGA | 0.00494 |
| ATCGATGAGTG G34T | 0.0033 |
| ATCATGGTTGA | 0.0043 |
| ATCGTATGTGA | 0.00154 |
| ATCGATTGTGA | 0.00257 |
| ATCGGGATGTG A29T | 0.0354 |
| ATGAGATGTGA | 0.00646 |

| Variant | fraction ligated |
| --- | --- |
| ATCATATGTGA A28G | 0.00411 |
| ATCATGGATGA A28G | 0.00362 |
| ATGATGGAGTT G34T T37G | 0.00184 |
| ATGAGGATGTG A29T | 0.00971 |
| ATCGAGGAGTG | 0.0042 |
| ATCGAGGAGTA | 0.00327 |
| ATCGAGGATGA | 0.00383 |
| ATCATGGAGTA G34T | 0.00594 |
| ATCGTGATGTG | 0.0261 |
| ATCGTGATGTA | 0.00285 |
| ATCGGATGTGA A29G | 0.00359 |
| ATCGGATGTGA A29T | 0.00285 |
| ATCGAGAGTGA | 0.00383 |
| ATCGGGAGTGA | 0.00227 |
| ATCGTGAGTGA | 0.00262 |
| ATCGATGGTGA | 0.00498 |
| ATCATGATGTA | 0.00345 |
| ATCATGATGTG | 0.0143 |
| ATGATGGAGTG G34T | 0.011 |
| ATCATGGAGTT G34T T37G | 0.00293 |
| ATGAGGATTGA A29T | 0.00582 |
